Consider two molecules from patent US20240279618A1, “RECEPTOR TYROSINE KINASE AGONIST, COMPOSITION FOR CELL CULTURE MEDIUM, AND […] MAINTENANCE COMPOSITION” (SEKISUI CHEMICAL CO., LTD., priority 2021, published 2024).

The test system of experiment [1] is NIH3T3 (mouse fibroblast cell line). The experiment in a line: Cell growth assay with NIH3T3 (Cell Titer Glo luminescence). In kind it is cell-based. As for the experimental part:
As a cell for measuring a cell growth activity, NIH3T3 (mouse fibroblast cell line) was obtained from ECACC through a domestic agent. The cell which was subjected to extended culture according to an ordinary method, and then freeze-preserved at −80° C. using CellBankeR1 plus (manufactured by Xenoac Co., Ltd.) was used. […]
The cell growth assay for FGF2 was performed according to the following procedure. […] The plate was further left to stand for 8 minutes, and then the luminescence in each well was measured with a Synergy HTX plate reader (manufactured by BioTek) with a sensitivity set (Gain) of 200 and a measurement time of 1 s/well.
The measurement was performed at three points at each concentration of the test substance, for the measurement at a single concentration, 100 ng/ml of FGF2 was used as a positive control and a condition of no addition was used as a negative control, and the VHH monomer was prepared with uniform 100-fold dilution, and measured. […] EC50 measurement data were obtained according to an ordinary method using a control software attached to a plate reader. The EC50 value was calculated by applying the 4-parameter fit.
Each stock of the VHH monomer (Clone #1: 2.65 mg/mL; Clone #2: 0.82 mg/mL-PBS) was diluted 100-fold to check the presence or absence of the cell growth activity. […] The vertical axis in FIG. 15 indicates a relative luminescence amount. […]
Background: In ATP-based viability assays light output follows the ATP content of the culture.

For experiment [2], the system named is FGFR1-DIIDIII. The experiment in a line: Binding activity by biolayer interference (BLI) to FGFR1-DIIDIII. As to conditions: 1:1 binding model. Also on record: species or system human. As for the experimental part: (§1) The FGFR1 extracellular domain has DII and DIII domains. Each of an FGFR1 extracellular domains (hereinafter may be abbreviated as “FGFR1-DIIDIII”, “FGFR1-DII”, or “FGFR1-DIII”) was expressed using AAVpro293T cells as follows, these domains were purified, and an affinity measurement test with VHH Clone #1 was performed by a biolayer interference (BLI) method.
(§2) The binding activities of FGFR1-DIIDIII, FGFR1-DII, and FGFR1-DIII to VHH Clone #1 were measured by a biolayer interference method (hereinafter sometimes abbreviated as “BLI”). In BLI, using Octet 384 (manufactured by Fortebio), VHH Clone #1 diluted with a kinetics buffer (0.05% Tween20-containing PBS, pH 7.4) was immobilized on an Anti-Penta-HIS (HIS1K, manufactured by Fortebio) sensor chip, and bound to FGFR1-DIIDIII, FGFR1-DII, and FGFR1-DIII, which had been adjusted from 100 nM in 2-fold serial dilutions, and the dissociation rate was measured.
(§3) In the preparation for measurement, a tip of the sensor chip was immersed in 200 μL of the kinetics buffer for 10 minutes in order to hydrate the sensor chip. […]
(§4) After completion of the measurements, the measured value of a Reference (only the kinetics buffer) was subtracted from the actual measurement value, and Global Fitting was performed using a 1:1 binding model using Octet software to calculate the binding activity (FIG. 22).

Experiment [3] concerns the target T1, FGFR1-DIII (Homo sapiens, UniProt P11362).
T1 construct: The FGFR1 extracellular domain has DII and DIII domains; made in house; host or cells: AAVpro293T cells
T1 sequence (P11362 255-357 limits assumed): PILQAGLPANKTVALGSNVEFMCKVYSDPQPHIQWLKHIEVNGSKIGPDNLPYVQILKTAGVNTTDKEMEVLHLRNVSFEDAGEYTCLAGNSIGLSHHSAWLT
Nature of the experiment: Binding activity by biolayer interference (BLI) to FGFR1-DIII. As to conditions: 1:1 binding model. As for the experimental part:
as §1, §2, §3, §4

Experiment [4] has as its target T2, FGFR1-DII (Homo sapiens, UniProt P11362).
T2 construct: The FGFR1 extracellular domain has DII and DIII domains; made in house; host or cells: AAVpro293T cells
T2 sequence (P11362 158-246 limits assumed): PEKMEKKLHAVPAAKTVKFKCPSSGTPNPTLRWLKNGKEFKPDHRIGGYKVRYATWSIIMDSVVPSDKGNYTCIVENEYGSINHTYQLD
Nature of the experiment: Binding activity by biolayer interference (BLI) to FGFR1-DII. The settings on record: Octet, VHH immobilized. As for the experimental part:
as §1, §2, §3, §4

FGFR1-DIIDIII, sequence (P11362 158-357 limits assumed): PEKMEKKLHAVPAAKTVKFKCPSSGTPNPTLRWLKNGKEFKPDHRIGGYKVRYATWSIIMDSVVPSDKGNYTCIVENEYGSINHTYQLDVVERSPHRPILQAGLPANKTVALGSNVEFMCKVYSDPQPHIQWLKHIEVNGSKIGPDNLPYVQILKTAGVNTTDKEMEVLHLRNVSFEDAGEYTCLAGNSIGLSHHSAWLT

B1: VHH Clone #2: alpaca-derived VHH single-domain antibody (monomer) binding FGFR1, amino acid sequence SEQ ID NO: 18 (protein)
VHH: QVQLVESGGGLVQAGGSLRLSCAVPGSIFRFNTMGWYRQPPGKQRELVAQMSRGGITKYGDSVKGRFTITRDNAKNTVHLQMNSLKPEDTAVYYCAGSYYSGSYYYPSPQGFSVWGQGTQVTVSP
modifications: VHH_Clone_#2
As to B1, the “cell growth activity (relative luminescence amount, RLU)” value in experiment [1] (NIH3T3, serum-free, 2 days, 4-fold dilution series, compared with FGF2) is “relative luminescence amount was low even at a high concentration”. Moreover, the “cell growth activity of VHH monomer (relative luminescence amount)” value in experiment [1] (NIH3T3, stock diluted 100-fold (Clone #2: 8.20 μg/mL)) is “significantly exhibited a cell growth activity”.

B2: VHH Clone #1: alpaca-derived VHH single-domain antibody (monomer) binding FGFR1, amino acid sequence SEQ ID NO: 17 (protein)
VHH: QLQLVESGGGSVQAGGSLRLSCAASRSLSRFNVWTWYRQAPVKQRELVASITKSGDTNYAESVKGRFIISRDDDKNTVYLQMNNLKSEDTGIYYCAGSYYSGSYLYPSPGGFSVWGQGTQVTVSS
modifications: VHH_Clone_#1
As to B2, in experiment [2], the “Koff” value came out at 0.000141 s⁻¹ and the “Kon” value came out at 289000 M/s. In addition, in experiment [3], the “Koff” value was found to be 0.000351 s⁻¹ and the “Kon” value was 298000 M/s. In experiment [4], the “KD (M)” value is on record as “No Binding”.
